Experimental data: US20220048967A1 (published 2022)
Numbered stars: 1 amine (or outer) side, 2 acyl side, 3 side chain; on linkers, the order of the positions; unused ones are H or OH. Square brackets hold non-standard residues; d marks the D form. Side chains are listed from the residue outwards. Ends that are not written are not given here. * marks the point of attachment. C20 diacid = O=C(O)CCCCCCCCCCCCCCCCCCC(=O)*; C18 diacid = O=C(O)CCCCCCCCCCCCCCCCC(=O)*; αMePhe(2-F) = C[C@](N)(Cc1ccccc1F)C(=O)O; γGlu = O=C(O)[C@H](CCC(=O)[*:2])N[*:1]; αMeF = C[C@](N)(Cc1ccccc1)C(=O)O; AEEA = NCCOCCOCC(=O)O; Aib = CC(C)(N)C(=O)O

T1: human gastric inhibitory peptide receptor (GIPR) (human, UniProt P48546 22-466)
T1 sequence (looked up): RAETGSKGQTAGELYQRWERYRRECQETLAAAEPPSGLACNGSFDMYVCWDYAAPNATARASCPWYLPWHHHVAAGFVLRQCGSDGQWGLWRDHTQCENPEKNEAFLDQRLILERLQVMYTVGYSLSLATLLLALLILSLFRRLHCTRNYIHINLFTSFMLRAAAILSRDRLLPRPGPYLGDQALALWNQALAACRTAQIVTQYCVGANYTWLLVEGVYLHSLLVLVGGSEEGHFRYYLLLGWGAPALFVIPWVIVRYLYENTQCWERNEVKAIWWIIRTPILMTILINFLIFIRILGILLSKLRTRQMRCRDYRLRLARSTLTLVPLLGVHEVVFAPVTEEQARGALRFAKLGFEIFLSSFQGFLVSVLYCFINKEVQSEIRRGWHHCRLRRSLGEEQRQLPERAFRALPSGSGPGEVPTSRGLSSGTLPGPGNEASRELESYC


Legend:
[1] = biological target: human GLP-1 receptor (GLP-1R) (human, UniProt P43220 24-463); assay: cell-based or functional assay
[2] = biological target: T1, human gastric inhibitory peptide …; assay: cell-based or functional assay

Row | Binder | hGLP1R cAMP EC50 ratio [1] | hGLP1R cAMP Rel EC50 [1] | hGIPR cAMP EC50 ratio [2] | hGIPR cAMP Rel EC50 [2]
1 | YXEGTXTSDHSIXLDEKAQXTFIXYLIEGGPSSGAPPPS (Y-Aib-EGT-αMeF(2F)-TSDHSI-αMeF-LDEK((2-[2-(2-Amino-ethoxy)-ethoxy]-acetyl)2-CO-(CH2)18-CO2H)AQ-Aib-TFI-(D-Glu)-YLIEGGPSSGAPPPS-NH2) [Example 174] | 0.0968 | 472 pM | 0.483 | 217 pM
2 | YXEGTXTSDLSIXLDEKAQXEFIXYLIEGGPSSGAPPPS (Y-Aib-EGT-αMeF(2F)-TSDLSI-αMeF-LDEK((2-[2-(2-Amino-ethoxy)-ethoxy]-acetyl)2-(γ-Glu)-CO-(CH2)18-CO2H)AQ-Aib-EFI-(D-Glu)-YLIEGGPSSGAPPPS-NH2) [Example 183] | 0.843 | 55.1 pM | 3.1 | 61.5 pM
3 | YXEGTXTSDHSIXLDEKAQXTFIXYLIEGGPSSGAPPPS (Y-Aib-EGT-αMeF(2F)-TSDHSI-αMeF-LDEK((2-[2-(2-Amino-ethoxy)-ethoxy]-acetyl)2-(ϵK)-CO-(CH2)18-CO2H)AQ-Aib-TFI-(D-Glu)-YLIEGGPSSGAPPPS-NH2) [Example 175] | 0.0412 | 1110 pM | 1.19 | 88.1 pM
4 | YXEGTXTSDXSIXLDEKAQXEFIXYLIEGGPSSGAPPPS (Y-Aib-EGT-αMeF(2F)-TSD-(D-Tyr)-SI-αMeF-LDEK((2-[2-(2-Amino-ethoxy)-ethoxy]-acetyl)2-(γ-Glu)-CO-(CH2)18-CO2H)AQ-Aib-EFI-(D-Glu)-YLIEGGPSSGAPPPS-NH2) [Example 184] | 0.135 | 392 pM | 2.45 | 47.7 pM
5 | YXEGTXTSDXSIXLDEKAQXEFIXYLIEGGPSSGAPPPS (Y-Aib-EGT-αMeF(2F)-TSD-4Pal-SI-αMeF-LDEK((2-[2-(2-Amino-ethoxy)-ethoxy]-acetyl)2-(γ-Glu)-CO-(CH2)18-CO2H)AQ-Aib-EFI-(D-Glu)-YLIEGGPSSGAPPPS-NH2) [Example 182] | 0.873 | 46.3 pM | 4.37 | 44.2 pM
6 | YXEGTXTSDHSIXLDEKAQXTFIXYLIEGGPSSGAPPPS (Y-Aib-EGT-αMeF(2F)-TSDHSI-αMeF-LDEK((2-[2-(2-Amino-ethoxy)-ethoxy]-acetyl)2-(γ-Glu)-CO-(CH2)16-CO2H)AQ-Aib-TFI-(D-Glu)-YLIEGGPSSGAPPPS-NH2) [Example 169] | 0.0136 | 3370 pM | 0.122 | 860 pM
7 | Y[Aib]EGT[αMePhe(2-F)]TSDHSI[αMeF]LDEK([AEEA-AEEA-γGlu-C18 diacid])AQ[Aib]HFI[dE]YLIEGGPSSG-NH2 (N-terminus assumed; SMILES CC[C@H](C)[C@H](NC(=O)[C@H](CC(C)C)NC(=O)[C@H](Cc1ccc(O)cc1)NC(=O)[C@@H](CCC(=O)O)NC(=O)[C@@H](NC(=O)[C@H](Cc1ccccc1)NC(=O)[C@H](Cc1c[nH]cn1)NC(=O)C(C)(C)NC(=O)[C@H](CCC(N)=O)NC(=O)[C@H](C)NC(=O)[C@H](CCCCNC(=O)COCCOCCNC(=O)COCCOCCNC(=O)CC[C@H](NC(=O)CCCCCCCCCCCCCCCCC(=O)O)C(=O)O)NC(=O)[C@H](CCC(=O)O)NC(=O)[C@H](CC(=O)O)NC(=O)[C@H](CC(C)C)NC(=O)[C@](C)(Cc1ccccc1)NC(=O)[C@@H](NC(=O)[C@H](CO)NC(=O)[C@H](Cc1c[nH]cn1)NC(=O)[C@H](CC(=O)O)NC(=O)[C@H](CO)NC(=O)[C@@H](NC(=O)[C@](C)(Cc1ccccc1F)NC(=O)[C@@H](NC(=O)CNC(=O)[C@H](CCC(=O)O)NC(=O)C(C)(C)NC(=O)[C@@H](N)Cc1ccc(O)cc1)[C@@H](C)O)[C@@H](C)O)[C@@H](C)CC)[C@@H](C)CC)C(=O)N[C@@H](CCC(=O)O)C(=O)NCC(=O)NCC(=O)N1CCC[C@H]1C(=O)N[C@@H](CO)C(=O)N[C@@H](CO)C(=O)NCC(N)=O) [Example 179] | 0.0169 | 2700 pM | 0.0575 | 1830 pM
8 | Y[Aib]EGT[αMePhe(2-F)]TSDHSI[αMeF]LDEK([AEEA-AEEA-γGlu-C18 diacid])AQ[Aib]HFI[dE]YLIEGG-NH2 (N-terminus assumed; SMILES CC[C@H](C)[C@H](NC(=O)[C@H](CC(C)C)NC(=O)[C@H](Cc1ccc(O)cc1)NC(=O)[C@@H](CCC(=O)O)NC(=O)[C@@H](NC(=O)[C@H](Cc1ccccc1)NC(=O)[C@H](Cc1c[nH]cn1)NC(=O)C(C)(C)NC(=O)[C@H](CCC(N)=O)NC(=O)[C@H](C)NC(=O)[C@H](CCCCNC(=O)COCCOCCNC(=O)COCCOCCNC(=O)CC[C@H](NC(=O)CCCCCCCCCCCCCCCCC(=O)O)C(=O)O)NC(=O)[C@H](CCC(=O)O)NC(=O)[C@H](CC(=O)O)NC(=O)[C@H](CC(C)C)NC(=O)[C@](C)(Cc1ccccc1)NC(=O)[C@@H](NC(=O)[C@H](CO)NC(=O)[C@H](Cc1c[nH]cn1)NC(=O)[C@H](CC(=O)O)NC(=O)[C@H](CO)NC(=O)[C@@H](NC(=O)[C@](C)(Cc1ccccc1F)NC(=O)[C@@H](NC(=O)CNC(=O)[C@H](CCC(=O)O)NC(=O)C(C)(C)NC(=O)[C@@H](N)Cc1ccc(O)cc1)[C@@H](C)O)[C@@H](C)O)[C@@H](C)CC)[C@@H](C)CC)C(=O)N[C@@H](CCC(=O)O)C(=O)NCC(=O)NCC(N)=O) [Example 180] | 0.0212 | 2160 pM | 0.133 | 790 pM
9 | Y[Aib]EGT[αMePhe(2-F)]TSDHSI[αMeF]LDEK([AEEA-AEEA-γGlu-C20 diacid])AQ[Aib]TFI[dE]YLIEGGPSSG-NH2 (N-terminus assumed; SMILES CC[C@H](C)[C@H](NC(=O)[C@H](CC(C)C)NC(=O)[C@H](Cc1ccc(O)cc1)NC(=O)[C@@H](CCC(=O)O)NC(=O)[C@@H](NC(=O)[C@H](Cc1ccccc1)NC(=O)[C@@H](NC(=O)C(C)(C)NC(=O)[C@H](CCC(N)=O)NC(=O)[C@H](C)NC(=O)[C@H](CCCCNC(=O)COCCOCCNC(=O)COCCOCCNC(=O)CC[C@H](NC(=O)CCCCCCCCCCCCCCCCCCC(=O)O)C(=O)O)NC(=O)[C@H](CCC(=O)O)NC(=O)[C@H](CC(=O)O)NC(=O)[C@H](CC(C)C)NC(=O)[C@](C)(Cc1ccccc1)NC(=O)[C@@H](NC(=O)[C@H](CO)NC(=O)[C@H](Cc1c[nH]cn1)NC(=O)[C@H](CC(=O)O)NC(=O)[C@H](CO)NC(=O)[C@@H](NC(=O)[C@](C)(Cc1ccccc1F)NC(=O)[C@@H](NC(=O)CNC(=O)[C@H](CCC(=O)O)NC(=O)C(C)(C)NC(=O)[C@@H](N)Cc1ccc(O)cc1)[C@@H](C)O)[C@@H](C)O)[C@@H](C)CC)[C@@H](C)O)[C@@H](C)CC)C(=O)N[C@@H](CCC(=O)O)C(=O)NCC(=O)NCC(=O)N1CCC[C@H]1C(=O)N[C@@H](CO)C(=O)N[C@@H](CO)C(=O)NCC(N)=O) [Example 167] | 0.0487 | 1200 pM | 0.291 | 617 pM
